Source: IntAct's records for PubMed 16600184

B1: Phospholipid-transporting ATPase accessory subunit LEM3 (Saccharomyces cerevisiae), P42838 (parent)
chain: MVNFDLGQVGEVFRRKDKGAIVSGDNPEEEEDVDASEFEEDEVKPVRTKNRRPKEDAFTQQRLAAINPVLTPRTVLPLYLLIAVVFVIVGGCILAQNSKVDEVTIYYQDCMTNATSSWSDIPSEHWQFVFHKYKTYNTAPQWRFVDDESDDFTKQRGTCQIRFTTPSDMKNNVYLNYVLEKFAANHRRYVLSFSEDQIRGEDASYETVHDATGINCKPLSKNADGKIYYPCGLIANSMFNDTFPLQLTNVGDTSNNYSLTNKGINWESDKKRYKKTKYNYTQIAPPPYWEKMYPDGYNETNIPDIQDWEEFQNWMRPGAFDKITKLIRINKNDTLPAGEYQLDIGLHWPVLEFNGKKGIYLTHGSHLGGRNPFLGIVYLIGGCICAAMALILLTFWLFGGRKIADASSLSWNMK

Variants of: B1
Details: with atc5_yeast DNF1, P32660
Chain of atc5_yeast DNF1, P32660 (P32660 whole entry): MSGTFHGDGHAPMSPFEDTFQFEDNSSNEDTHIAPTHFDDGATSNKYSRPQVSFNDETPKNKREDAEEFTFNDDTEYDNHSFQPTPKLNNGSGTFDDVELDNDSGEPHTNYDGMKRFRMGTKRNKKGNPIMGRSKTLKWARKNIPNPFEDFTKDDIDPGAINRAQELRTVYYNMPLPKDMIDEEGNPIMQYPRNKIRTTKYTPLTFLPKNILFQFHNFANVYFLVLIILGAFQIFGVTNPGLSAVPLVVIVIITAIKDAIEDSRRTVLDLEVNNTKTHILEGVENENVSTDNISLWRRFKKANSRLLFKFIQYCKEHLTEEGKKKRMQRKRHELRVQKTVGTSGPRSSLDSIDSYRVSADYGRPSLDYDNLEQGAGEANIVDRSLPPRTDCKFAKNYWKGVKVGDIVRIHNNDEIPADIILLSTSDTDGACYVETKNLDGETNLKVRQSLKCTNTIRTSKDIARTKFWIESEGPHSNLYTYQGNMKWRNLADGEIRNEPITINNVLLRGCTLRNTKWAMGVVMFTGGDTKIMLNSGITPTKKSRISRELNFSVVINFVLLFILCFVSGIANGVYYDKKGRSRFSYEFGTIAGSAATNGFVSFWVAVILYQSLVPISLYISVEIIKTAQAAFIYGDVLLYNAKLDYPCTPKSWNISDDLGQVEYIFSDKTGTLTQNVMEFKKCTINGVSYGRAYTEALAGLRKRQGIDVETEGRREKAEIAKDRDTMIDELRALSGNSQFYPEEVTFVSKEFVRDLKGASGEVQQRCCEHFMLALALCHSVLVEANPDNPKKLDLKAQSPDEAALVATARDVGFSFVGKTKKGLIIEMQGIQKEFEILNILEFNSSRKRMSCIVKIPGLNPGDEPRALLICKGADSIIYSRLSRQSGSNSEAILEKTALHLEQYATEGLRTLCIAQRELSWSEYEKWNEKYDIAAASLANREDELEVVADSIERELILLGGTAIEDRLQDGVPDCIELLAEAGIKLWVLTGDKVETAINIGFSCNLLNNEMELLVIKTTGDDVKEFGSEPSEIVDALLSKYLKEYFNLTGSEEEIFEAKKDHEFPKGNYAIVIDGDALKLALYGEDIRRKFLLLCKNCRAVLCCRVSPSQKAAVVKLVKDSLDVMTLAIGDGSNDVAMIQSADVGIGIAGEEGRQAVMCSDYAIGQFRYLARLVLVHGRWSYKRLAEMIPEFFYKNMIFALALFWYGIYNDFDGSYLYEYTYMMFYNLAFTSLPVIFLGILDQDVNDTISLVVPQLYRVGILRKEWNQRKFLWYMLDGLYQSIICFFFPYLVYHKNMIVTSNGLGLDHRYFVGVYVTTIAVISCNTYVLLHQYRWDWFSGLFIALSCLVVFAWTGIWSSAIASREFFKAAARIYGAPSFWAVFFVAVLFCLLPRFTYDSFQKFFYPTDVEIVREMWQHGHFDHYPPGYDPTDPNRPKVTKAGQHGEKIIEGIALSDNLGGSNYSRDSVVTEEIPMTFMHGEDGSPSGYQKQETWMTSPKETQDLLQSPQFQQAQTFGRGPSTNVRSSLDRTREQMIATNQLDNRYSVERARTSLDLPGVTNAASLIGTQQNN
In the case of R316W, the “effect of a mutation on the interaction” value is reported as “with no effect”.

Variants of: B1
Details: with atc4_yeast DNF2, Q12675
Chain of atc4_yeast DNF2, Q12675 (Q12675 whole entry): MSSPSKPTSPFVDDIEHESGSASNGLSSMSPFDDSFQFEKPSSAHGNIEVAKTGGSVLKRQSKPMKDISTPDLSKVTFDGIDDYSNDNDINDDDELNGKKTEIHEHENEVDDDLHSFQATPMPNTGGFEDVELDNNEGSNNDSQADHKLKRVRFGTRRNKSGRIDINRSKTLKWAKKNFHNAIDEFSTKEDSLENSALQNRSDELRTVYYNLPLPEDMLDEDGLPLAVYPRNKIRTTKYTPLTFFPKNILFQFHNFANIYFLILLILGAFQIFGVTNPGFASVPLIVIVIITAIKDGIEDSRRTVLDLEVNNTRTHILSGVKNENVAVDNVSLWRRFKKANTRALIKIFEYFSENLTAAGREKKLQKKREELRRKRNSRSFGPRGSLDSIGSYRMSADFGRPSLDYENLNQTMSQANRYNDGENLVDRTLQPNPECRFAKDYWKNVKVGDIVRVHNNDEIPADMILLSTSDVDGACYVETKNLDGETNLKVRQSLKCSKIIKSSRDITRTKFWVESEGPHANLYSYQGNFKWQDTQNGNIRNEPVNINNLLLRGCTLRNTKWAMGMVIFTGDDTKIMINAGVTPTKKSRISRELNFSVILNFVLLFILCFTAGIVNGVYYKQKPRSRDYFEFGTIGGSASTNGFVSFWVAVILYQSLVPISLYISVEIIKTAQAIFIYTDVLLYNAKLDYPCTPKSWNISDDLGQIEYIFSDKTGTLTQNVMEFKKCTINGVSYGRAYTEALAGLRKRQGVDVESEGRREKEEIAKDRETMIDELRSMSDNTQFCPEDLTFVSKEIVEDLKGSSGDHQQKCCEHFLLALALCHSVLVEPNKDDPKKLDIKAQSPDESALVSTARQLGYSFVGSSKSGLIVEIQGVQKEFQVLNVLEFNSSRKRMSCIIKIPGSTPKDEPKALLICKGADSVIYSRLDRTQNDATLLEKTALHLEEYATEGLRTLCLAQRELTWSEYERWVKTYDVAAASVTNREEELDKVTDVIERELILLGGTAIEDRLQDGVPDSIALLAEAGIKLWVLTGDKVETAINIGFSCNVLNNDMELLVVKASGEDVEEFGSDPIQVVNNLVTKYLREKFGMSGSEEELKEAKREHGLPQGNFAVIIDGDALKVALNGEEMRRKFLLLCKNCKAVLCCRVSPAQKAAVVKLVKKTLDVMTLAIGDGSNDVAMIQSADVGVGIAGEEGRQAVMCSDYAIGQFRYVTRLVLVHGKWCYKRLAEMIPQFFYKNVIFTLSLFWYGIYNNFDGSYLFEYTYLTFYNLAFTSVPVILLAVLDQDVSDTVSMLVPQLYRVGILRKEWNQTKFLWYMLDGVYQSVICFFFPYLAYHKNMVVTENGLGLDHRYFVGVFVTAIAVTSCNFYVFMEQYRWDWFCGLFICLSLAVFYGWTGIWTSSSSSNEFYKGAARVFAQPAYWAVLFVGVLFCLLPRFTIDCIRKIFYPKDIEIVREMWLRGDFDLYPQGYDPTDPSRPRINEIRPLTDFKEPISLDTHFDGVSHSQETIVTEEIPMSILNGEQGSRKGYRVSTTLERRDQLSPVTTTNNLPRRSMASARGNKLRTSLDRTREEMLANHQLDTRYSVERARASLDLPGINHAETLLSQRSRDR
R316W was tested, and the “effect of a mutation on the interaction” value was “with no effect”.
